Earlier results on three substances are cited in patent US20200222508A1 (Arecor Limited, priority 2016, published 2020).

For the series the following is noted: in vivo.
For the substance “Albiglutide: GLP-1 dimer fused to human albumin, SEQ ID NO: 5”, the circulating half-life is 96 to 170 h.

In the case of “Lixisenatide: analogue of exendin-4, proline omitted at position 38, six lysine residues added at C-terminal, SEQ ID NO: 8”, the circulating half-life was 2 to 4 h.

On to “Dulaglutide: GLP-1 analogue consisting of GLP-1(7-37) covalently linked to an Fc fragment of human IgG4, SEQ ID NO: 6”, for which the circulating half-life result is on record as “approximately 5 days”.
